From article PMC11840735

Molecular target: USP14 (UniProt P54578)
Assay: co-IP, immunoblot
Conditions: reference: ALKBH5 wild type; sites S64,S69

binding against the reference: weaker
Substance: ALKBH5 (from UniProt Q6P6C2) ALKBH5 S64A/S69A
